{
  "source": "paper doi:10.1101/2021.03.16.435614",
  "molecular_target": "CTD (C-terminal domain) of SOQ1 (SUPPRESSOR OF QUENCHING1), recombinant (Arabidopsis thaliana)",
  "assay": "MST",
  "data": [
    {"substance": "Trx-like domain of SOQ1 (SUPPRESSOR OF QUENCHING1), recombinant (domain or fragment)", "values": [
      {"measurement": "Kd", "result": 8.76, "unit": "µM"}
    ]}
  ]
}
